Source: patent US20200115466A1 (NANOCRUISE PHARMACEUTICAL, published 2020)
Numbering of substitutions follows the chain as printed.

B1: mouse-human chimeric antibody 16A (antibody, human IgG1, lambda, V domains shown)
VH: EVKLHQSGGGLVQPGGFLKISCVVSGIDFSRYWMSWVRRAPGKGLEWIGEITPDSNTINYVPSLKDNFGISRDNAKNTLFLQMTKVRSEDTALYFCASYYEGFAYWGQGTLVTVSA
VL: QAVVTQESALTTSPGETVTLTCRSSTGAVITSNYANWVQEKPDHLFTGLIGRTYNRVPGVPARFSGSLIGDKAALTITGAQTEDEAIYFCALWYSNHFVFGGGTKLTVLG
notes: Murine 16A VH and VL joined to human IgG1 constant region and human lambda 2 light chain; also called chimeric 16A; 16A chimeric antibody
B2: humanized 16A antibody hVH2hVL2 (antibody, human IgG1, lambda, V domains shown)
VH: EVQLVESGGGLVQPGGSLRLSCAVSGIDFSRYWMSWVRQAPGKGLEWVGEITPDSNTINYVPSVKGRFTISRDNAKNSLYLQMNSLRAEDTAVYYCASYYEGFAYWGQGTLVTVSS
VL: QAVVTQEPSLTVSPGGTVTLTCGSSTGAVITSNYANWVQQKPGQAPTGLIGRTYNKVPWTPARFSGSLLGDKAALTLSGAQPEDEAEYFCALWYSNHFVFGGGTKLTVLG
notes: CDR-grafted humanized antibody; also called Humanized HC 2 (H2988) with Humanized LC2 (L2988)
B3: humanized 16A antibody hVH4hVL2 (antibody, human IgG1, lambda, V domains shown)
VH: B2 VH with S17F, A23V, R67N, T69G, Y80F, Y95F
VL: B2 VL
notes: CDR-grafted humanized antibody; also called Humanized HC 4 (H2990) with Humanized LC2 (L2988)
B4: humanized 16A antibody hVH5hVL2 (antibody, human IgG1, lambda, V domains shown)
VH: B2 VH with A23V, T69G, Y95F
VL: B2 VL
notes: CDR-grafted humanized antibody; also called Humanized HC 5 (H2991) with Humanized LC2 (L2988)
B5: humanized 16A antibody hVH1hVL2 (antibody, human IgG1, lambda, V domains shown)
VH: B2 VH with G49A
VL: B2 VL
notes: CDR-grafted humanized antibody; also called Humanized HC 1 (H2987) with Humanized LC2 (L2988)
B6: humanized 16A antibody hVH3hVL2 (antibody, human IgG1, lambda, V domains shown)
VH: B2 VH with Q3K, Y95F
VL: B2 VL
notes: CDR-grafted humanized antibody; also called Humanized HC 3 (H2989) with Humanized LC2 (L2988)

Target: T1, MUC1 on the surface of lung cancer cell line H838 (UniProt P15941 24-1255, limits assumed, tumour-type glycosylation (GalNAc epitope RPAPGS(GalNAc)TAPPAHG), as the filing describes the antigen)
T1 construct: whole, on cells; No MUC1-negative control of H838 is reported; also called antigen
T1 sequence (P15941 24-1255 limits assumed): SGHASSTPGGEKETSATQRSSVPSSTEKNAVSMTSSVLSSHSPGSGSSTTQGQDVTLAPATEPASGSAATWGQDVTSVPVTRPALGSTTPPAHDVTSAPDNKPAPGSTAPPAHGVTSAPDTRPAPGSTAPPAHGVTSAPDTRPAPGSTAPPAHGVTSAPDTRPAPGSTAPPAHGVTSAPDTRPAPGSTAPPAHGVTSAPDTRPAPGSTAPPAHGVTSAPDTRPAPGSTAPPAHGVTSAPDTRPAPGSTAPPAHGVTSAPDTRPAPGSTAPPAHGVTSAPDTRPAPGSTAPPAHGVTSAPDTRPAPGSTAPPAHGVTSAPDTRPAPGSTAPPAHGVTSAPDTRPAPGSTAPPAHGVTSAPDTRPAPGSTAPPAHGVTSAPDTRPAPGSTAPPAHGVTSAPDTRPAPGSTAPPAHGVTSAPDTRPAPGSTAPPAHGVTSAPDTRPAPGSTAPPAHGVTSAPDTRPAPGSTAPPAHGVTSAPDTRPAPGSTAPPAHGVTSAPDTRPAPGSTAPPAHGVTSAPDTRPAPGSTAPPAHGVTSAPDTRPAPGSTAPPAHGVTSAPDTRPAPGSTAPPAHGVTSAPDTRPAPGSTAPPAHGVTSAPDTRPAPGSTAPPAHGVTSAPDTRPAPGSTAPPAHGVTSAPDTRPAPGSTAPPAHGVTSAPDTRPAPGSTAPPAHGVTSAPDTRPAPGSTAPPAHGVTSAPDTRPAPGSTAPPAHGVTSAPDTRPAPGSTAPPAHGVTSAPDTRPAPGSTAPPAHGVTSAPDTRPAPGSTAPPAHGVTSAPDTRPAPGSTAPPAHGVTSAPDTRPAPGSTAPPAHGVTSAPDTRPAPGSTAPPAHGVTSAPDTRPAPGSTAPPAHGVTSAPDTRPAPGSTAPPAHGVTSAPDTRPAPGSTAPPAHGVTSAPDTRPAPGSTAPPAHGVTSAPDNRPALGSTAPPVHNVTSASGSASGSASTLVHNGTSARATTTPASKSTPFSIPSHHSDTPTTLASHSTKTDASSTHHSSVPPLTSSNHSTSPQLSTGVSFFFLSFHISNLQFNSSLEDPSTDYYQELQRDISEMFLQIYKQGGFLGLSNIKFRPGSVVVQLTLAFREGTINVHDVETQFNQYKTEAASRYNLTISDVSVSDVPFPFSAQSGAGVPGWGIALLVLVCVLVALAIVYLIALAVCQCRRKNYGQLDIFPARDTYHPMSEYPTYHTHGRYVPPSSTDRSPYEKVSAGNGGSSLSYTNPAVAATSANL
Experiment: flow cytometry, surface staining of H838 cells, PE anti-human IgG
Method: Lung cancer cell line H838 was obtained from the University of Texas M.D. Anderson Cancer Center. Cells were cultured in 10% RPMI 1640 medium. Different concentrations of chimeric antibody or humanized antibodies were used as primary antibody for staining, washed three times with PBS, then incubated with PE-conjugated mouse-anti-human IgG (BioLegend). The stained cells were analyzed by FACS Caliber flow cytometer (BD Biosciences, San Jose, Calif.).

Row | Binder | Minimum concentration of binding to lung cancer cell line H838 [µg/mL]
1 | B1 | 0.0125
2 | B2 | 0.025
3 | B3 | 0.05
4 | B4 | 0.025
5 | B5 | 0.025
6 | B6 | 0.025
